Data on two substances can be found in publication doi:10.1101/570390.

For this test, the target named is mature KLK4 from recombinant pro-KLK4 expressed in Sf9 cells, activated with thermolysin (human) (UniProt Q9Y5K2). As to the kind of experiment: enzyme inhibition assay.
Sequence of UniProt Q9Y5K2 (Q9Y5K2 31-254): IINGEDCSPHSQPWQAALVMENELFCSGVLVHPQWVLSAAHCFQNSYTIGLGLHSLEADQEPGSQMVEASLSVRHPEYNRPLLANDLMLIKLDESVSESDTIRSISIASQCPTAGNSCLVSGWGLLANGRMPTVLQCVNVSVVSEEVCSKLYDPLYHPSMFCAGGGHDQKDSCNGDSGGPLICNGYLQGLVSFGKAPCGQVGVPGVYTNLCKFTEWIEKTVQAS

SFTI-FCQR(Asn14), bicyclic (peptide): the Ki (usually the equilibrium dissociation constant of an inhibitor or competing ligand from its target) was 0.04 nM. Take “SFTI-FCQR(Asn14)[1,14], monocyclic (1,14-acyclic backbone, disulfide-bridged) (peptide)”: the Ki is 3.48 nM.
